Source: paper PMC6358683 (Proceedings of the National Academy of Sciences of the …, 2019)

What was measured:
Assay in all cases: ELISA
[1] = target: HA of A/Thailand/CU44/2006 (Influenza A virus A/Thailand/CU44/2006 …, UniProt A7LI25, strain)
HA of A/Hong Kong/1/1968 = HA of A/Hong Kong/1/1968 (influenza A virus A/Hong Kong/1/1968 …, UniProt Q91MA7)
[2] = target: HA of A/Solomon Islands/03/2006 (Influenza A virus A/Solomon …, UniProt A7Y8I1, strain)
HA of A/Japan/305+/1957 = HA of A/Japan/305+/1957 (Influenza A virus A/Japan/305/1957 …, UniProt P03451)

Measured: binding result

B1: C05 WT (antibody, V domains shown)
VH: QVQLQESGGGLVQPGESLRLSCVGSGSSFGESTLSYYAVSWVRQAPGKGLEWLSIINAGGGDIDYADSVEGRFTISRDNSKETLYLQMTNLRVEDTGVYYCAKHMSMQQVVSAGWERADLVGDAFDVWGQGTMVTVSS
VL: DIQLTQSPSSLSASVGDRVTLTCQASQDIRKFLNWYQQKPGKGPKLLIYDASNLQRGVPSRFSGGGSGTDFTLIISSLQPEDVGTYYCQQYDGLPFTFGGGTKVVIK
binds: [1] | HA of A/Hong Kong/1/1968 | [2] | HA of A/Japan/305+/1957
